Values of other authors as cited in article PMC9607845.
Where two headings read alike, the source gives them in different places. Values belong to the substance of their own block, whether it stands above or below them.

Experiments:
[1] = target: BCOR peptide (Homo sapiens) (UniProt Q6W2J9)
[2] = target: SMRT SMRT peptide (Homo sapiens) (UniProt Q9Y618)
[3] = target: BCOR BCOR peptide (Homo sapiens) (UniProt Q6W2J9)
[4] = target: SMRT peptide (Homo sapiens) (UniProt Q9Y618)
[5] = target: Mig6 segment 1 peptide (Homo sapiens) (UniProt Q9UJM3)
Chain of Mig6 segment 1 peptide (Homo sapiens) (Q9UJM3 336-364): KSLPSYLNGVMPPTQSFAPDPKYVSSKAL

[6] = target: Mig6 segment 1 peptide segment 1 (Homo sapiens) (UniProt Q9UJM3)
Chain of Mig6 segment 1 peptide segment 1 (Homo sapiens) (Q9UJM3 334-363): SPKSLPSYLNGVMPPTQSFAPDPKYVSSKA

[7] = target: p73 peptide (Homo sapiens) (UniProt O15350)
Chain of p73 peptide (Homo sapiens) (O15350 whole entry): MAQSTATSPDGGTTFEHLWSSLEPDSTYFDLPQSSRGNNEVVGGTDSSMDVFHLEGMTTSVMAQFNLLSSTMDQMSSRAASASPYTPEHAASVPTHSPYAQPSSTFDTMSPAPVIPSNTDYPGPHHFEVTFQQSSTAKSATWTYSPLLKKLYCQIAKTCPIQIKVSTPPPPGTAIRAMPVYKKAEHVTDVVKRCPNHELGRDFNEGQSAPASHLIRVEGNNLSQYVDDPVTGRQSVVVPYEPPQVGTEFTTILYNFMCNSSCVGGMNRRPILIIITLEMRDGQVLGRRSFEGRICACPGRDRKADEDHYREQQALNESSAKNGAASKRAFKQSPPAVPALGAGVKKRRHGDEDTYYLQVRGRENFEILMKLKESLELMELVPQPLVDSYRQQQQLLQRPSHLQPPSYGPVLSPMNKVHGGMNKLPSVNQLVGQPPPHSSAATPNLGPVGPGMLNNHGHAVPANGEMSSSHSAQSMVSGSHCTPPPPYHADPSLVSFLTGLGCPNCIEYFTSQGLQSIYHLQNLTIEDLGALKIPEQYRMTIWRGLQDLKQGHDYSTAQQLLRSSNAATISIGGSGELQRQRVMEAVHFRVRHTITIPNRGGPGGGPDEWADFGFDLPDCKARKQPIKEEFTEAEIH

[8] = target: p63 peptide (Homo sapiens) (UniProt Q9H3D4)
Chain of p63 peptide (Homo sapiens) (Q9H3D4 whole entry): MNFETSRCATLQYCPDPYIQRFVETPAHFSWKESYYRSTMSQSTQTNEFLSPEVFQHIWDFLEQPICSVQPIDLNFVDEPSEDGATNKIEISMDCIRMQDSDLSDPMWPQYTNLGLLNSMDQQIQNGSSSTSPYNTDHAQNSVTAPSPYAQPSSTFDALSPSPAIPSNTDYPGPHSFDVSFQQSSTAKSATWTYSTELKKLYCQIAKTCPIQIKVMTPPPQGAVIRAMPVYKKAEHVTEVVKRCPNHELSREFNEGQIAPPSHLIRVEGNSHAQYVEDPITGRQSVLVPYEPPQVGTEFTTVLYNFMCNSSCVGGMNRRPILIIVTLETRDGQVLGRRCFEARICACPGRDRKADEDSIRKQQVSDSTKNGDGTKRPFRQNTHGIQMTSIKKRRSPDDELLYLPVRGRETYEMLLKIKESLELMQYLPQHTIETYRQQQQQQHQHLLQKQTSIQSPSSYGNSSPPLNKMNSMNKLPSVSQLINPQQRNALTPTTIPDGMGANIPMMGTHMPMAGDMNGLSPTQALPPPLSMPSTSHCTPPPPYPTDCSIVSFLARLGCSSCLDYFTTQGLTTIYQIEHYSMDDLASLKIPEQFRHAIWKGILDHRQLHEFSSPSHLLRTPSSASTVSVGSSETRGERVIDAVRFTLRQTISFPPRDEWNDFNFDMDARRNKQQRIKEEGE

[9] = target: p73 peptide (Homo sapiens) (UniProt O15350); remark: listed apart in the source
[10] = target: p63 peptide (Homo sapiens) (UniProt Q9H3D4); remark: listed apart in the source

Chain of MDM2 MDM2N (Q00987 17-125): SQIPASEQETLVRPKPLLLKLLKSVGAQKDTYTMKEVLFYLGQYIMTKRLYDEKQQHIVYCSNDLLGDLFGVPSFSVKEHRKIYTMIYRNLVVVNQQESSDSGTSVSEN
Chain of SMRT peptide (Homo sapiens) (Q9Y618 whole entry): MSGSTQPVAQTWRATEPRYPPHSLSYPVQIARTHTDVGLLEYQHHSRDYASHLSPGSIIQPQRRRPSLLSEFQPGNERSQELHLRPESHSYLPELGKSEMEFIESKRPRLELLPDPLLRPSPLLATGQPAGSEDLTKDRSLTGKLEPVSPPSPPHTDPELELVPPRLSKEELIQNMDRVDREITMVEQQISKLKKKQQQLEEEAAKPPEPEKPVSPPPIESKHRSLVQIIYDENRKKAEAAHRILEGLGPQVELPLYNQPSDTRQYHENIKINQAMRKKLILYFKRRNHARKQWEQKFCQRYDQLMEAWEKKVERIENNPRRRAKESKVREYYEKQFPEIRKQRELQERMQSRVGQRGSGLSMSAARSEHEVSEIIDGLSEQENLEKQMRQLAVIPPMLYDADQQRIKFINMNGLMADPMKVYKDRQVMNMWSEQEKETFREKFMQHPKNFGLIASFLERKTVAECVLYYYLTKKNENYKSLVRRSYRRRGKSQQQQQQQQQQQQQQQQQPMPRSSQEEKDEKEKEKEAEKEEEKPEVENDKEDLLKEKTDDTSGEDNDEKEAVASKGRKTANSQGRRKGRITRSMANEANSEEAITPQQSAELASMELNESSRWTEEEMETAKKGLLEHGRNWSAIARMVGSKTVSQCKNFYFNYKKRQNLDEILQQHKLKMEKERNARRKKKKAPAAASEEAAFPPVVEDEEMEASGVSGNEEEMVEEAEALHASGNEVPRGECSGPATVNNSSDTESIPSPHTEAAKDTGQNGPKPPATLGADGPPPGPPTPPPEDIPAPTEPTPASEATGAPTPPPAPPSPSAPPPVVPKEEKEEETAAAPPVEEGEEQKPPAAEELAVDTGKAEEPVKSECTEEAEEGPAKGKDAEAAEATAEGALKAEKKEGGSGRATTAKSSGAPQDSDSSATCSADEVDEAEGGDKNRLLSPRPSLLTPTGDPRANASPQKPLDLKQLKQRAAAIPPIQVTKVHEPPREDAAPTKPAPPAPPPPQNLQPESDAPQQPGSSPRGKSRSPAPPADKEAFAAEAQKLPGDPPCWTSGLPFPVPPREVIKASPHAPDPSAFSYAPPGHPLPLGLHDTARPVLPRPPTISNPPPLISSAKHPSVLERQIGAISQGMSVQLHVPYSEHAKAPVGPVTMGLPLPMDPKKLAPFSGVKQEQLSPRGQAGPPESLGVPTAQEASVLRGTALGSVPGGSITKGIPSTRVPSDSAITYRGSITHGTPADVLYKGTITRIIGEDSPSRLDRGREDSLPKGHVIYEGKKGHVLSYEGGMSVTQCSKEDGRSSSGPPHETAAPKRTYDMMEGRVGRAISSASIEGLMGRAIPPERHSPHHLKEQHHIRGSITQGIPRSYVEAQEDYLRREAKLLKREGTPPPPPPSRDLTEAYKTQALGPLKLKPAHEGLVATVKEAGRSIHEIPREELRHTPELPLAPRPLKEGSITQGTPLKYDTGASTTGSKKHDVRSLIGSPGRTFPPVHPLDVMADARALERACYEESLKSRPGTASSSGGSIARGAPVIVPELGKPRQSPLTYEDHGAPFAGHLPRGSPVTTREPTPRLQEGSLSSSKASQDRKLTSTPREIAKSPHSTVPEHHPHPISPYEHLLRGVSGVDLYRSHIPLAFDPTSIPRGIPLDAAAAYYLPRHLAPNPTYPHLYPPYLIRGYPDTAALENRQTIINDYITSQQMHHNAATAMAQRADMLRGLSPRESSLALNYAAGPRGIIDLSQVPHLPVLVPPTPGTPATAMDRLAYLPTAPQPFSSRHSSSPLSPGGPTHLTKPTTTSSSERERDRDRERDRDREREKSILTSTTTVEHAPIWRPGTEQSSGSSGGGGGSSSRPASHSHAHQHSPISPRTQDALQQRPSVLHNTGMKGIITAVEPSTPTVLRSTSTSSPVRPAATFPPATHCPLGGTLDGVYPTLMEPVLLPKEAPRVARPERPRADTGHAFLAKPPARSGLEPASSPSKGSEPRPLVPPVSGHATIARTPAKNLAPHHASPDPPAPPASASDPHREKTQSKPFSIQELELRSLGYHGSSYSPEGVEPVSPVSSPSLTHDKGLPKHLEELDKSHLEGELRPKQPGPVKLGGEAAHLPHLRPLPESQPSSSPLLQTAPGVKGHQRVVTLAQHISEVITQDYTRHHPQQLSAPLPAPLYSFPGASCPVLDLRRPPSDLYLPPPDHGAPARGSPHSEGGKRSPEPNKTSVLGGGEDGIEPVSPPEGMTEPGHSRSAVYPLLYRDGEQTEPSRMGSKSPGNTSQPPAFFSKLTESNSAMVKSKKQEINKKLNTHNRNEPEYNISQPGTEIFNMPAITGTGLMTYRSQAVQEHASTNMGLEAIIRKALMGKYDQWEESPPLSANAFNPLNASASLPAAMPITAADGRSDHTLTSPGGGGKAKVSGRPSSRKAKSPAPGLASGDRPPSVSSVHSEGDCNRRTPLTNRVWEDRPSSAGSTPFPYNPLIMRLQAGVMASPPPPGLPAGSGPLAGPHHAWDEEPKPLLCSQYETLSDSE

Kd [1]: 1300 nM | Kd [2]: 11 µM | Kd [3]: 1300 nM | Kd [4]: 11 µM
Substance: Bcl6 BTB (from UniProt P41182)

Kd [5]: 13 µM | Kd [6]: 13 µM
Substance: EGFR kinase domain C-lobe (from UniProt P00533)

Kd [7]: 1400 nM | Kd [8]: 26 µM
Substance: MDM2 MDM2N (from UniProt Q00987)

Kd [9]: 1400 nM | Kd [10]: 26 µM
Substance: MDM2 N-terminal domain (from UniProt Q00987)
